Laboratory results as given in the RNAGym collection of RNA variant scans (doi:10.7554/elife.90254).

B1: OR4K15 (parent)
chain: GUUAACGGUCAUAGGCCAUGGAAACUAGGAGCACCAUUUCGCUGCCAGUGAAGAAAUGAACAAAGAAAAUCUGGGCCAGGCAGGCAUCAAAAGAAAUAGUCUUGCGCUCAACCAGAAAGUCUGUAAUCAUUUUAAGGGUA

Variants of: B1
Experiment: self-cleavage, relative activity (ratio to wild type); higher = more cleavage; in vitro, sequencing; the parent is a self-cleaving ribozyme

First: GUUAGCGGUCAUAGGCCAUGGAAACUAGGAGCACCAUUUCGCUGCCAGUGAAGAAAUGAACAAAGAAAAUCUGAGCCAGGCAGGCAUCAAAAGAAAUAGUCUUGCGCUCAACCAGAAAGUCUGUAAUCAUUUUAAGGGUA [A5G G74A]
Second: GUUAGCGGUCAUAGGCCAUGGAAACUAGGAGCACCAUUUCGCUGCCAUUGAAGAAAUGAACAAAGAAAAUCUGGGCCAGGCAGGCAUCAAAAGAAAUAGUCUUGCGCUCAACCAGAAAGUCUGUAAUCAUUUUAAGGGUA [A5G G48U]
The self-cleavage of the first is lower: 0.73 for the first, 0.93 for the second.

Going from GUUAGCGGUCAUAGGCCAUGGAAACUAGGAGCACCAUCUCGCUGCCAGUGAAGAAAUGAACAAAGAAAAUCUGGGCCAGGCAGGCAUCAAAAGAAAUAGUCUUGCGCUCAACCAGAAAGUCUGUAAUCAUUUUAAGGGUA [A5G U38C] to GUUAGCGGUCAUAGGCCAUGGAAACUAGGAGCACCAUAUCGCUGCCAGUGAAGAAAUGAACAAAGAAAAUCUGGGCCAGGCAGGCAUCAAAAGAAAUAGUCUUGCGCUCAACCAGAAAGUCUGUAAUCAUUUUAAGGGUA [A5G U38A], the self-cleavage falls from 1.14 to 0.58.

First: GUUAGCGGUCAUAGGCCAUGGAAACUAGGAGCACCAUUUCGCUGCCAGUGAAGAAAUGAACAAAGAAAAUCUGGGCCAGGCAGGCAUCAAAAGAAAUAGUCUUGCGCUCAACCAGAAAGUCUGUAAUCAUUUUAAGGGUG [A5G A140G]
Second: GUUAGCGGUCAUAGGCCAUGGAAACUAGGAGCACCAUUUCGCUGCCAGUGAAGAAAUGAACAAAGAAAAUCUGGGCCAGGCAGGUAUCAAAAGAAAUAGUCUUGCGCUCAACCAGAAAGUCUGUAAUCAUUUUAAGGGUA [A5G C85U]
The self-cleavage of the first is lower: 0.77 for the first, 0.92 for the second.

First: GUUAGCGGUCAUAGGCCAUGGAAACUAGGAGCACCAUUUCGCUGCCAGUGAAGAAAUGAACAAAGAAAAUCUGGGCCAGGCAGGCAUAAAAAGAAAUAGUCUUGCGCUCAACCAGAAAGUCUGUAAUCAUUUUAAGGGUA [A5G C88A]
Second: GUUAGCGGUCAUAGGCCAUGGAAACUAGGAGCACCAUUUCGCUGCCAGUGAAGAAAUGAACAAAGAAAAUCUGGGCCAGGCAGGCAUCAAAAGAAAUAGUCUUGCGCUCAACCAGAAGGUCUGUAAUCAUUUUAAGGGUA [A5G A118G]
The self-cleavage of the first is lower: 0.8 for the first, 1 for the second.

Compared with GUUAGCGGUCAUAGGCCAUGGAAACUAGGAGCACCAUUUCGCUGCCAGUGAAGAAAUGAACAAAGAAAAUCUGGGCCAGGCAGGCAUCAAAAGAAAUAGUCUUGCGCUCAACCAGAAUGUCUGUAAUCAUUUUAAGGGUA [A5G A118U], GUUAGCGGACAUAGGCCAUGGAAACUAGGAGCACCAUUUCGCUGCCAGUGAAGAAAUGAACAAAGAAAAUCUGGGCCAGGCAGGCAUCAAAAGAAAUAGUCUUGCGCUCAACCAGAAAGUCUGUAAUCAUUUUAAGGGUA [A5G U9A] is higher in self-cleavage: 0.56 for the first, 1.38 for the second.

Going from GUUAGCGGUCAUAGGCCAUGGAAACUAGGAGCACCAUUUCGCUGCCAGUGAAGAAAUGAACAAAGAAAAUCUGGGCCAGGCAAGCAUCAAAAGAAAUAGUCUUGCGCUCAACCAGAAAGUCUGUAAUCAUUUUAAGGGUA [A5G G83A] to GUUAGCGGUCAUAGGCCAUGGAAACUAGGAGCACCAUUUCGCUGCCAGUGAAGAAAUAAACAAAGAAAAUCUGGGCCAGGCAGGCAUCAAAAGAAAUAGUCUUGCGCUCAACCAGAAAGUCUGUAAUCAUUUUAAGGGUA [A5G G58A], the self-cleavage falls from 1.54 to 1.07.

First: GUUAGCGGUCAUAGGCCAUGUAAACUAGGAGCACCAUUUCGCUGCCAGUGAAGAAAUGAACAAAGAAAAUCUGGGCCAGGCAGGCAUCAAAAGAAAUAGUCUUGCGCUCAACCAGAAAGUCUGUAAUCAUUUUAAGGGUA [A5G G21U]
Second: GUUAGCGGUCAUAGACCAUGGAAACUAGGAGCACCAUUUCGCUGCCAGUGAAGAAAUGAACAAAGAAAAUCUGGGCCAGGCAGGCAUCAAAAGAAAUAGUCUUGCGCUCAACCAGAAAGUCUGUAAUCAUUUUAAGGGUA [A5G G15A]
The self-cleavage of the first is lower: 0.96 for the first, 1.02 for the second.

Compared with GUUAGCGGUCAUAGGCCAUGGAAACUAGGAGCACCAUUCCGCUGCCAGUGAAGAAAUGAACAAAGAAAAUCUGGGCCAGGCAGGCAUCAAAAGAAAUAGUCUUGCGCUCAACCAGAAAGUCUGUAAUCAUUUUAAGGGUA [A5G U39C], GUUAGCGGUCAUAGGCCAUGGAAACUAGGAGCACCAUUACGCUGCCAGUGAAGAAAUGAACAAAGAAAAUCUGGGCCAGGCAGGCAUCAAAAGAAAUAGUCUUGCGCUCAACCAGAAAGUCUGUAAUCAUUUUAAGGGUA [A5G U39A] is lower in self-cleavage: 1.32 for the first, 1.16 for the second.

Compared with GUUAGCGGUCAUAGGCCAUGGAAACUAGGAGCACCAUUUCGCUGCCAGUGAAGAAAUGAACAAAGAAAAUCUGGGCCAGGCAGGCAUCAAAAGAAAUAGUCUUGCGCUCAACCAGAAAGUCUGUAAUCAUUUUUAGGGUA [A5G A134U], GUUAGCGGUCAUAGGCCAUGGAAACUAGGAGCACCAUUUCGCUGCCAGUGAAGAAAUGAACAAAGAAAAUCUGGGCCAGGCAGGCAUCAAAAGAAAUAGUCUUGCGCACAACCAGAAAGUCUGUAAUCAUUUUAAGGGUA [A5G U108A] is lower in self-cleavage: 1.24 for the first, 0.05 for the second.

Going from GUUAGCGGUCAUAGGCCAUGGAAACUAGGAGCACUAUUUCGCUGCCAGUGAAGAAAUGAACAAAGAAAAUCUGGGCCAGGCAGGCAUCAAAAGAAAUAGUCUUGCGCUCAACCAGAAAGUCUGUAAUCAUUUUAAGGGUA [A5G C35U] to GUUAGCGGUCAUAGGCCAUGGAAACUAGGAGCACCAAUUCGCUGCCAGUGAAGAAAUGAACAAAGAAAAUCUGGGCCAGGCAGGCAUCAAAAGAAAUAGUCUUGCGCUCAACCAGAAAGUCUGUAAUCAUUUUAAGGGUA [A5G U37A], the self-cleavage falls from 1.59 to 1.3.

Compared with GUUAGCGGUCAUAGGCCAUGGAAACUAGGAGCACCACUUCGCUGCCAGUGAAGAAAUGAACAAAGAAAAUCUGGGCCAGGCAGGCAUCAAAAGAAAUAGUCUUGCGCUCAACCAGAAAGUCUGUAAUCAUUUUAAGGGUA [A5G U37C], GUUAGCGGUCAUAGGCCAUGGAAACUAGGAGCACCAUUUUGCUGCCAGUGAAGAAAUGAACAAAGAAAAUCUGGGCCAGGCAGGCAUCAAAAGAAAUAGUCUUGCGCUCAACCAGAAAGUCUGUAAUCAUUUUAAGGGUA [A5G C40U] is higher in self-cleavage: 1.29 for the first, 1.31 for the second.

Compared with GUUAGCGGUCAUAGGCCAUGGAAACUAGGAGCACCAUUUCGCUACCAGUGAAGAAAUGAACAAAGAAAAUCUGGGCCAGGCAGGCAUCAAAAGAAAUAGUCUUGCGCUCAACCAGAAAGUCUGUAAUCAUUUUAAGGGUA [A5G G44A], GUUAGCGGUCAUAGGCCAUGGAAACUAGGAGCACCAUUUCGCUGCCAGUGAAGAAAUGAACAAAGAAAAUCUGGGCCAGGCAGGCAUCAAAAGAAAUAGUCUUGCGCUCAACCAGAAAGUCUGUAAUCAUUUUAUGGGUA [A5G A135U] is higher in self-cleavage: 0.86 for the first, 1.26 for the second.

First: GUUAGCGGUCAUACGCCAUGGAAACUAGGAGCACCAUUUCGCUGCCAGUGAAGAAAUGAACAAAGAAAAUCUGGGCCAGGCAGGCAUCAAAAGAAAUAGUCUUGCGCUCAACCAGAAAGUCUGUAAUCAUUUUAAGGGUA [A5G G14C]
Second: GUUAGCGGUCAUAGGCCAUGGAAACUAGAAGCACCAUUUCGCUGCCAGUGAAGAAAUGAACAAAGAAAAUCUGGGCCAGGCAGGCAUCAAAAGAAAUAGUCUUGCGCUCAACCAGAAAGUCUGUAAUCAUUUUAAGGGUA [A5G G29A]
The self-cleavage of the first is higher: 1.57 for the first, 1.06 for the second.

First: GUUAGCGGUCAUAGGCCAUGGAAACUAGGAGCACCAUUUCGCUGCCAGUGAAGAAAUGAACAAAGAAAAUCUGGGCCAGGCAGGCAUCAAAAGAAAUAAUCUUGCGCUCAACCAGAAAGUCUGUAAUCAUUUUAAGGGUA [A5G G99A]
Second: GUUAGCGGUCAUAGGCCAUGGAAACUAGGAGCACCAUUUCGCUGCCAGUGAAGAAAUGAACAAAGAAAAUCUGGGCCAGGCAGGCAUCAAAAGAAAUAGUCUUGCCCUCAACCAGAAAGUCUGUAAUCAUUUUAAGGGUA [A5G G106C]
The self-cleavage of the first is higher: 0.66 for the first, 0.08 for the second.

Going from GUUAGCGGUCAUAGGCCAUGGAAACUAGGAGCACCAUUUCGCUGCCAGUGAAGAAAUGAACAAAGAAAAUCUGGGCCAGGCAGGCAUCAAAAGAAAUAGUAUUGCGCUCAACCAGAAAGUCUGUAAUCAUUUUAAGGGUA [A5G C101A] to GUUAGCGGUCAUAGGCCAUGGAAACUAGGAGCACCAUUUCGCUGCCAGUGAAGAAAUGAACAAAGAAAAUCUGGGCCAGGCAGGCAUCAAAAGAAAUAGCCUUGCGCUCAACCAGAAAGUCUGUAAUCAUUUUAAGGGUA [A5G U100C], the self-cleavage rises from 0.25 to 1.11.

Going from GUUAGCGGUCAUAGGCCAUGGAAACUAGGAGCACCAUUUCGCUGCCAGAGAAGAAAUGAACAAAGAAAAUCUGGGCCAGGCAGGCAUCAAAAGAAAUAGUCUUGCGCUCAACCAGAAAGUCUGUAAUCAUUUUAAGGGUA [A5G U49A] to GUUAGCGGUCAUAGGCCAUGGAAACUAGGAGCACCAUUUCGCUGCCAGUGAAGAAAUGAACAAAGAAAAUCUGGGCCAGGCAGGCAUCAAAAGAAAAAGUCUUGCGCUCAACCAGAAAGUCUGUAAUCAUUUUAAGGGUA [A5G U97A], the self-cleavage rises from 0.9 to 1.57.

Going from GUUAGCGGUCAUAGGCCAUGGAAACUAGGAGCACCAUUUCGCUGCCAGUGAAGAAAUGAACAAAGAAAAUCUGGGCCAGGCAGGCAUCAAAAGAAAUAGUCCUGCGCUCAACCAGAAAGUCUGUAAUCAUUUUAAGGGUA [A5G U102C] to GUUAGCGGUCAUAGGCCAUGGAAACUAGGAGCACCAUUUCGCUGCCAGUGAAGAAAGGAACAAAGAAAAUCUGGGCCAGGCAGGCAUCAAAAGAAAUAGUCUUGCGCUCAACCAGAAAGUCUGUAAUCAUUUUAAGGGUA [A5G U57G], the self-cleavage falls from 1.34 to 1.17.

First: GUUAGCGGUCAUAGGCCAUGGAAACUAGGAGCACCAUUUCGCUGCCAGUGAAGAAAAGAACAAAGAAAAUCUGGGCCAGGCAGGCAUCAAAAGAAAUAGUCUUGCGCUCAACCAGAAAGUCUGUAAUCAUUUUAAGGGUA [A5G U57A]
Second: GUUAGCGGUCAUAGGCCAUGGAAACUAGGAGCACCAUUUCGCUGCCAGUGAAGAAAUGAACAAAGAAAAUCUGGGCCAGGCAGGCAACAAAAGAAAUAGUCUUGCGCUCAACCAGAAAGUCUGUAAUCAUUUUAAGGGUA [A5G U87A]
The self-cleavage of the first is higher: 1.09 for the first, 0.62 for the second.

First: GUUAGCGGUCAUAGGCCAUGGAAACUAGGAGCACCAUUUCGCUGCCAGUGAAGAAAUGAACAAAGAAAAUCUGGGCCAGGCAGGCAUCAAAAGAAAUAGUCUUGCGCUCAACCAGAAAGUCUGUAAUCAUUUUAAGUGUA [A5G G137U]
Second: GUUAGCGGUCAUAGGCCAUGGAAACUAGGAGCACCAUUUCGCUGACAGUGAAGAAAUGAACAAAGAAAAUCUGGGCCAGGCAGGCAUCAAAAGAAAUAGUCUUGCGCUCAACCAGAAAGUCUGUAAUCAUUUUAAGGGUA [A5G C45A]
The self-cleavage of the first is higher: 1.62 for the first, 0.99 for the second.

Going from GUUAGCGGUCAUAGGCCAUGGAAACUAGGAGCACCAUUUCGCUGCCAGUGAAGAAAUGAACAAAGAAAAUCUGGGCCAGGCAGGCAUCAAAAGAAAUAGUCUUGCGCUCAACCAGAGAGUCUGUAAUCAUUUUAAGGGUA [A5G A117G] to GUUAGCGGUCAUAGGCCAUGGAAACUAGGAGCACCAUUUCGCUGCCAGUGAAGAAAUGAACAAAGAAAAUCUGGGCCAGGCAGGCAUCAAAAGAAAUAGUCUUGCGCUCAACCAGAAAGUCUGUAAUCGUUUUAAGGGUA [A5G A129G], the self-cleavage falls from 1.51 to 0.87.

GUUAGCGGUCAUAGGCCAUGGAAACUAGGAGCACCAUUUCGCUGCCAGUGAAGAAAUGAACAAAGAAAAACUGGGCCAGGCAGGCAUCAAAAGAAAUAGUCUUGCGCUCAACCAGAAAGUCUGUAAUCAUUUUAAGGGUA [A5G U70A] showed a self-cleavage of 0.75.
